Measurements taken from the nanobody polyreactivity screen of Harvey et al. (2022).

experiment: yeast display, Sf9 membrane polyspecificity reagent, FACS + sequencing; frameworks hold sequencing errors
How it was run: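 A nanobody's polyreactivity label depends on the gate it was sorted from. Yeast display cells were stained with 10% biotinylated, detergent-solubilized Sf9 membrane reagent for 1 hour at 4 °C, enriched on streptavidin microbeads and sorted by FACS. The low and high (top ~1%) gates were set on anti-HA fluorescence for expression and streptavidin fluorescence for reagent binding.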

Sequence | polyreactivity (PSR sort gate)
QVQLVESGGGIVQAGGSLRLSCAASGFIFSSYAMGWYRQAPGKERELVAAITVRAGRTYYADSVKGRFTISRDNAKKTVYLQMNSLKPEDTAVYYCNAVSTAVIGYEYDYWGQGTQVTVSS | high polyreactivity
QVQLVESGGGIVQAGGSLRLSCAASGFIIRPYAMGWYRQAPGKERELVAAITGGGSTYYADSVKGRFTISRDNAKNTVYLQMNSLKPEDTAVYYCNADRRRRSGGFAGWHFQRNVYWGQGTQVTLSS | low polyreactivity
QVQLVESGGGIVQAGGSLRLSCAASGFILDYNAMGWYRQAPGKERELVATITGRGDRTYYADSVKGRFTISRDNAKNTVYLQMNSLKPEDTAVYDCAAGFDGSRHPGFDSWGQGTQVTVSS | low polyreactivity
QVQLVESGGGIVQAGGSLRLSCAASGFISSVNAMGWYRQAPGKDRELVAAISDSATSTYYADSVKGRFTISRDNAKNTVYLQMNSLKPEDTAVYYCDAYSHYVGYEYWGQGTQVTVSS | high polyreactivity
QVQLVESGGGIVQAGGSLRLSCAASGFTFDPYAMGWYRQAPGKERELVAATSWSGGSTYYADSVKGRFTISRDNAKNTVYLQMNSLKPEDTAVYYCAAEWYNSAYYEYDYWGQGTQVTVSS | high polyreactivity
QVQLVESGGGIVQAGGSLRLSCAASGFTFIYYAMGWYRQAPGKERELVAGISSGGRTSYADSVKGRFTISRDNAKNTVYFQMNSLKPEDTAVYYCATPVSRFRRTEYGYYYWGQGTQVSVSS | high polyreactivity
QVQLVESGGGIVQAGGSLRLSCAASGFTFRYNTMGWYRQAPGKERELVAAITSRGTSTYYADSVKGRFTISRDNAKNTVYLQMYSLKPEDTAVYYCNKVYFKGTTRLSVSVYKLEYWGQGTQVTVSS | high polyreactivity
QVQLVESGGGIVQAGGSLRLSCAASGGIFLGNAMVWYRQAPGKERELVAGITWSGGRTYYADSVKGRFTISRDNAKNTVYLQMNSLKPEDTAVYYCNKDTPGTRFYGIYSYDYWGQGTQVTVSS | low polyreactivity
QVQLVESGGGIVQAGGSLRLSCAASGGIFYGYAMGWYRQAPGKERELVAAISSTGGRTYYADSVKGRFTISRDNAKNTVYLQMNSLKPEDTAVYYCAAEDFTRQFEYWGQGTQVTVSS | low polyreactivity
QVQLVESGGGIVQAGGSLRLSCAASGGTFHYYAMGWYRQAPGKERELVAAINRSGDSTYYADSVKGRFTISRDNSKNTVYLQMNSLKPEDTAVYYCAVSYYGADGNPFPHDYWGQGTQVTVSS | low polyreactivity
QVQLVESGGGIVQAGGSLRLSCAASGIIFWNYTMGWYRQAPGKERELVAAISVSGGSTYYADSVKGRFTISRDNAKNTVYLQMNSLKPEDTAVYYCAAEWIYPSPHYEYDYWGQGTQVTVSS | high polyreactivity
QVQLVESGGGIVQAGGSLRLSCAASGITFTVYAMGWYRQAPGKERELVAAITSTGSTNYADSVKGRFTISRDNAKNTVYLQMISLKPEDTAVYYCAADRQITVYAYDYWGHGTQVTVSS | low polyreactivity
QVQLVESGGGIVQAGGSLRLSCAASGITSYFNAMGWYRQAPGKERELVAITWNGGSTYYADSVKGRFTISRDNAMNTVYLQMNSLKPEDTAVYYCAARYRRYNRKYDYWGQGTQVTVSS | high polyreactivity
QVQLVESGGGIVQAGGSLRLSCAASGRIFLTNAKGWYRQAPGKERELVATITASGGTTYYADSVKGRFTISRDNAKNTVYLQMNSLKTEDTAVYYCAKRYYLRGYGRYYYWGQGTQVTVSS | high polyreactivity
QVQLVESGGGIVQAGGSLRLSCAASGRIFQLYGMGWYRQAPGKERECVAAISYGGGSTYYADSVKGRFTISRDIAKNTVYFKMNSLKPEDTAVYYCAAERRFYSLAKYQSMDYWGQGTQVTVSS | low polyreactivity
QVQLVESGGGIVQAGGSLRLSCAASGRIFQRYTMGWYRQAPGKEREFVAAITYSGGSTHYADSVKGRFTISRDNAKNTVYLQMNSLKPEDTAVYYCNADRYYGRGYGYWGQGTQVTVSS | low polyreactivity

Sequence | polyreactivity (PSR sort gate)
QVQLVESGGGIVQAGGSLRLSCAASGRIFSVNAMGWYRQAPGKERELVAAITGSGTITYYADSVKGRFTISRDNAKNSVYLQMNSLKPEDTAVYYCAARPVLRYYAGYYYWGQGTQVTVSS | high polyreactivity
QVQLVESGGGIVQAGGSLRLSCAASGRIFTRNAMGWYRQAPGKERELVAAISYSGGTTYYADSVKGRFTISRDNAKNTVYLQMNSLKPEDTAVYYCAALRPTQRYFTYDYWGQGTQVTVSS | high polyreactivity
QVQLVESGGGIVQAGGSLRLSCAASGRIIRYYTMGWYRQAPGKERELVAAIRQRGGSTYYADSVKGRFTISRDNAKNTVYLHMNSLKREDTAVYYCNAVRRTTYDYWGQGTQVTVSS | high polyreactivity
QVQLVESGGGIVQAGGSLRLSCAASGRNFYYYAMGWYRQAPGKERELVAAISWSGGRTYYADSVKGRFTISRDNAKNTVYFQMNSLKPEDTAVYYSNAEPPRGYSVSSGGEMDYWGQGTEVTVSS | low polyreactivity
QVQLVESGGGIVQAGGSLRLSCAASGRTFDSYAMGWYRQAPGKERELVAAITYSGGSTYYADSVKGRFTISRDNAKNTVYLQMNSLKPEDTAVYYCARDRFYYRLAGSKGRRKGDYWGQGTQVTVSS | high polyreactivity
QVQLVESGGGIVQAGGSLRLSCAASGRTFFLYTLGWYRQAPGKEREFVAAINYSGGRTYYADSVKGRFTISRDKAKNTVYLQMNSLKPEDTAVYYCAAYRGSYSYDYWGQGTQVTVSS | high polyreactivity
QVQLVESGGGIVQAGGSLRLSCAASGRTFNHYAMGWYRQAPGKERELVAAITNGGNTYYADSVKGRFTISRDNAKNTVYLQMNSLKPEDTAVYYCAKLYTDAIVWSAYDYWGQGTQVTVSS | low polyreactivity
QVQLVESGGGIVQAGGSLRLSCAASGRTFRPYAMGWYRQAPGKERELVAAITSGGSTYYADSVKGRFTISRDNAKNTVYLQMNSLKPEDTAVYYCNAKYYYQPPYDYWGQGTQVTVSS | low polyreactivity
QVQLVESGGGIVQAGGSLRLSCAASGRTFYAYTMGWYRQAPGKETELVAANSRTGGRTYYADSVKGRFTISRDNAKNTVYLQMNSLKPEDTAVYYCAAGSKPGIQFRSVYSAYRYYYCGQGTQVTVSS | high polyreactivity
QVQLVESGGGIVQAGGSLRLSCAASGRTFYYAMGWYRQAPGKERELVAAITSSSSTYYADSVKGRFTISRDNAKNTVYLQMNSLKPEDTAVYYCNSADDPYGSPSYGYDYWGQGTQVTVSS | low polyreactivity
QVQLVESGGGIVQAGGSLRLSCAASGRTIPPYGMGWYRQAPGKERELVAAISKSSGSTNYADSVKGRVTISRDNAKNTVYLQMNSLKPEDTAVYYCTKEWSIGPTGIRAYVRVWYYYWGQGTQVTVSS | low polyreactivity
QVQLVESGGGIVQAGGSLRLSCAASGRTIPYHAMGWYRQAPGKERELDAAISYSGGRTYYADCVKGRFTISRDNAKNSVYLLMNSLKPDDTAVYYCNALGSGREDVYWGQGTQVTVSS | high polyreactivity
QVQLVESGGGIVQAGGSLRLSCAASGRTLISYAMGWYRQAPGKERELVAAISWGGSSTYYADSVKWRFTISRDNAKNTVYLQRNSLKPEDTAVYYCNTVYYYWGKWRGTYDYWGLGTQVTVSS | high polyreactivity
QVQLVESGGGIVQAGGSLRLSCAASGSIFKHYAMGWYRQAPGKERELVATIDYLGGRTYYADSVKGRFTISRDNAKNTVYLQMNSLKPEDTAVYYCAASRYSGKIRGEDYWGQRTQVTVSS | low polyreactivity
QVQLVESGGGIVQAGGSLRLSCAASGSIFKYYAMARYRQAPGKERELVASMSRVGSTNYADSVKGRFTISRDTAKNTVYLQMNSLKPEDTAVYYCNKRWLYYNLDYWGQGTQVTVSS | high polyreactivity
